± gives the standard error. For some of these results: Fewer inactive variants are shown than the library holds.
B1: glmS ribozyme (parent)
chain: AUAAAAGCGCCAGAACUACAGAAAUGUAGUUGACGAGGAGGAGGUUUAUCGAAUUUUCGGCGGAUGCCUCCAAA

Key:
Conditions in all cases: with glucosamine-6-phosphate
[1] = variants of: B1; assay: kcat; higher = faster cleavage; RNA array
Method in brief: (§1)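 Using a hybridised Cy3 probe at 37 °C, barcoded ribozyme variants transcribed in situ by E. coli RNA polymerase on sequenced MiSeq chips were monitored across tiles imaged over ~14 h. The flow contained glucosamine-6-phosphate from 40 μM to 10 mM in HEPES/KCl/Mg(OAc)2 buffer. Signals were normalised to baseline and to non-cleaving reference variants before per-tile medians were fit to one- or two-exponential decays to yield kobs. Weighted Michaelis–Menten fits across concentrations gave kcat and KM.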

[2] = variants of: B1; assay: KM; higher = weaker cofactor use; RNA array
Method in brief: as §1

[3] = variants of: B1; assay: self-cleavage kobs at 40 uM GlcN6P; higher = faster cleavage; RNA array
Method in brief: as §1

[4] = variants of: B1; assay: self-cleavage kobs at 160 uM GlcN6P; higher = faster cleavage; RNA array
Method in brief: as §1

[5] = variants of: B1; assay: self-cleavage kobs at 640 uM GlcN6P; higher = faster cleavage; RNA array
Method in brief: as §1

[6] = variants of: B1; assay: self-cleavage kobs at 2500 uM GlcN6P; higher = faster cleavage; RNA array
Method in brief: as §1

[7] = variants of: B1; assay: self-cleavage kobs at 10000 uM GlcN6P; higher = faster cleavage; RNA array
Method in brief: as §1

Row | Variant | kcat [1] [s⁻¹] | KM [2] [mM] | self-cleavage kobs at 40 uM GlcN6P [3] [s⁻¹] | self-cleavage kobs at 160 uM GlcN6P [4] [s⁻¹] | self-cleavage kobs at 640 uM GlcN6P [5] [s⁻¹] | self-cleavage kobs at 2500 uM GlcN6P [6] [s⁻¹] | self-cleavage kobs at 10000 uM GlcN6P [7] [s⁻¹]
1 | A12C U30G | 0.00614 ± 0.0015 | 5.24 ± 1.8 | 6.93e-05 ± 1.4e-05 | 0.000166 ± 3.1e-05 | 0.000671 ± 0.00015 | 0.00164 ± 0.00034 | 0.00422 ± 0.00051
2 | A12G A15U | 0.000449 ± 5.3e-05 | 5.85 ± 1.1 | – | – | 4.86e-05 ± 6.8e-06 | 0.000123 ± 1.6e-05 | 0.000288 ± 2.6e-05
3 | A12U G37U | 3.51e-05 ± 1.1e-05 | – | – | – | – | – | –
4 | A12G A14U | 0.000731 ± 0.0002 | 5.7 ± 2.2 | – | – | 8.27e-05 ± 8e-06 | 0.000195 ± 1.9e-05 | 0.000524 ± 6.4e-05
5 | A12G G37A | 0.000113 ± 2.5e-05 | 6.32 ± 2.8 | – | – | – | 3.05e-05 ± 8.5e-06 | 6.97e-05 ± 1.1e-05
6 | A12U C61U | 2.71e-05 ± 7.4e-06 | – | – | – | – | 3.1e-05 ± 1.2e-05 | –
7 | G13A A14U | 0.000964 ± 0.00014 | 3.12 ± 0.8 | – | 5.13e-05 ± 1.1e-05 | 0.000184 ± 2.9e-05 | 0.000365 ± 5e-05 | 0.000781 ± 8e-05
8 | G13A A14C | 0.000465 ± 2.9e-05 | 2.44 ± 0.23 | – | 2.93e-05 ± 1e-05 | 9.47e-05 ± 1.2e-05 | 0.000245 ± 3.2e-05 | 0.000353 ± 8.7e-05
9 | A12G G13A | 6.3e-05 ± 2.4e-06 | 3.47 ± 0.39 | – | – | – | 2.7e-05 ± 9.7e-06 | 4.66e-05 ± 7.4e-06
10 | A12G U46G | 0.000475 ± 2.8e-05 | 9.04 ± 0.89 | – | – | 2.82e-05 ± 1.2e-05 | 0.000105 ± 1.5e-05 | 0.000248 ± 2.3e-05
11 | A12U A52C A53U C70G | 1.09e-05 ± 3.5e-06 | – | – | – | – | – | –
12 | A12C U31C | 0.00286 ± 0.00052 | 5.11 ± 1.3 | 3.7e-05 ± 1.5e-05 | 8.05e-05 ± 1.6e-05 | 0.000348 ± 6.1e-05 | 0.000876 ± 0.00014 | 0.00195 ± 0.0003
13 | G13A A39U | 0.000349 ± 1.8e-05 | 2.91 ± 0.27 | – | – | 6.49e-05 ± 8.9e-06 | 0.000153 ± 2e-05 | 0.000277 ± 3.4e-05
14 | G13A A39C | 0.000118 ± 1.9e-05 | 3.74 ± 1.2 | – | – | – | 4.55e-05 ± 7.4e-06 | 8.77e-05 ± 1.6e-05
15 | A12G C70U | 0.00188 ± 0.00036 | 4.46 ± 1.4 | 1.71e-05 ± 6.8e-06 | 7.66e-05 ± 6.8e-06 | 0.00025 ± 2.2e-05 | 0.00055 ± 4.3e-05 | 0.00139 ± 7.5e-05
16 | A12U G59U | 1.03e-05 ± 1e-06 | – | – | – | – | – | –
17 | A12G C71G | 0.000425 ± 2.2e-05 | 4.4 ± 0.37 | – | – | 5.45e-05 ± 6.3e-06 | 0.00015 ± 1.6e-05 | 0.000298 ± 3.1e-05

Row | Variant | kcat [1] [s⁻¹] | KM [2] [mM] | self-cleavage kobs at 40 uM GlcN6P [3] [s⁻¹] | self-cleavage kobs at 160 uM GlcN6P [4] [s⁻¹] | self-cleavage kobs at 640 uM GlcN6P [5] [s⁻¹] | self-cleavage kobs at 2500 uM GlcN6P [6] [s⁻¹] | self-cleavage kobs at 10000 uM GlcN6P [7] [s⁻¹]
18 | A12G U30A | 0.00011 ± 1.9e-06 | 2.89 ± 0.16 | – | – | – | 5.17e-05 ± 9.7e-06 | 8.52e-05 ± 7.5e-06
19 | A12U G41U | 0.0013 ± 0.00058 | – | 0.000239 ± 2.1e-05 | 0.00041 ± 5.1e-05 | 0.000814 ± 8.1e-05 | 0.00212 ± 0.00022 | –
20 | A12U A39C | 0.00341 ± 0.00095 | 2.77 ± 1.1 | 9.51e-05 ± 1.7e-05 | 0.000149 ± 2.7e-05 | 0.000656 ± 8.7e-05 | 0.00163 ± 0.00023 | 0.00266 ± 0.00035
21 | A12G G29A | 0.000356 ± 6.4e-05 | 7.17 ± 1.9 | – | – | 3.29e-05 ± 1e-05 | 8.7e-05 ± 1.7e-05 | 0.000213 ± 4.3e-05
22 | A12G G29U | 0.000345 ± 2.6e-05 | 3.74 ± 0.44 | – | – | 5.19e-05 ± 7.9e-06 | 0.000134 ± 1.9e-05 | 0.000255 ± 4.1e-05
23 | A12G U49G | 0.00103 ± 0.00035 | – | – | – | – | – | 6.93e-05 ± 1.7e-05
24 | A12G A53C | 0.000173 ± 3.8e-05 | 2.22 ± 1.1 | – | – | 5e-05 ± 6.8e-06 | 7.64e-05 ± 8.5e-06 | 0.000157 ± 1.5e-05
25 | A12U G43U | 0.000148 ± 3e-05 | – | – | – | 2.86e-05 ± 1.1e-05 | 0.000134 ± 2.2e-05 | 0.00012 ± 1.2e-05
26 | A12G U69G | 7.83e-05 ± 2.6e-06 | 0.285 ± 0.071 | – | – | 5.05e-05 ± 1.9e-05 | 7.46e-05 ± 1.5e-05 | 7.47e-05 ± 1.1e-05
27 | A12G G59U | 1e-05 ± 1.9e-06 | – | – | – | – | – | –
28 | A12G G59C | 6.79e-05 ± 1.4e-05 | – | < 1e-05 | – | – | 7.69e-05 ± 2.4e-05 | 5.86e-05 ± 1.4e-05
29 | A12G G40C | 0.000334 ± 3.5e-05 | 3.83 ± 0.72 | – | – | 5.37e-05 ± 1e-05 | 0.000124 ± 1.6e-05 | 0.000248 ± 3.1e-05
30 | G13A C50G C61G G66U | 0.000136 ± 9.6e-06 | 0.0172 ± 0.0067 | 9.58e-05 ± 1.7e-05 | 0.000112 ± 3.4e-05 | 0.000165 ± 5.4e-05 | 0.000149 ± 3.8e-05 | 0.000126 ± 2.6e-05
31 | A12U U46G | 0.023 ± 0.007 | 2.7 ± 1.1 | 0.000297 ± 7.2e-05 | – | 0.00656 ± 0.0018 | 0.0119 ± 0.0035 | 0.0167 ± 0.0047
32 | G13A C58G | 0.000377 ± 8.6e-05 | 7.15 ± 2.5 | – | – | 2.8e-05 ± 7.8e-06 | 0.000101 ± 1.7e-05 | 0.000217 ± 3.4e-05
33 | A12G A42G | 0.00162 ± 0.0003 | 4.88 ± 1.3 | – | 3.49e-05 ± 1.3e-05 | 0.000189 ± 1.9e-05 | 0.00064 ± 7.7e-05 | 0.00103 ± 0.00012
